{"source": "the DeepSol protein solubility set"}
{"test": "soluble on expression in E. coli; label from the status in PepcDB or PDB records"}
{"sequence": "MISILRRGLLVLLAALPLLANAASTPSAHDLVQDTTTRLLADLAANKEKYKQSPNDFYNALNSIVGPVVDADGISRSIMTVKYSRKATPEQMVRFQENFKRSLMQFYGNALLEYNNQGITVSPAKDESGTRTSVDMQVKGNNGAIYPVSYTLEKINDEWKVRNVIINGINIGKLFRDQFADAMQRNGNNLDKTIDGWAGEVAKAKEVTEDAAQKAAQLEHHHHHH", "soluble on expression in E. coli": "soluble"}
{"sequence": "GMKIDGETRSARKDREIIQAATAAFISKGYDGTSMEEIATKAGASKQTVYKHFTDKETLFGEVVLSTASQVNDIIESVTTLLSEAIFMEGGLQQLARRLIAVLMDEELLKLRRLIIANADRMPQLGRAWYEKGFERMLASTASCFQKLTNRGLIQTGDPYLAASHLFGMLLWIPMNEAMFTGSNRRSKAELERHADASVEAFLAVYGVQPK", "soluble on expression in E. coli": "soluble"}
{"sequence": "AIAPGRKRKLAAKTAELAPEAGEGSESTSLVGSADASASTAAGVAHTEQQEMPSGGLHESFLESIPPAASFLEELAWVESLASPSYVAYLCQMRRFDDVVAQRRLTTLQRWRQDPAYRQHVSQPIALFFLEQLCSAEFREALRHPAVAALYERQVDLYRRCYGNLLNTGESRVLR", "soluble on expression in E. coli": "soluble"}
{"sequence": "MDISTNKANYKPAVSQAFDGQETQDGTNILILGSDQRVTQGSTDARTDTIMVVNVGNHAKKIKMVSFMRDTLINIPGYSYNDNSYDLKLNSAFNLGEQEDHHGAEYVRRALKHNFDIDIKYYVMVDFETFAEAIDTLFPNGVKIDAKFATVGGVAVDSVEVPDDLRMKNGVVPNQTIEVGEQRMDGRTLLNYARFRKDDEGDFGRTVRQQQVMSAVMSQIKDPTKLFTGSAAIGKIYALTSTNVSFPFVVKNGVSVLGSGKNGVEHVTIPENGDWVDEYDMYGGQALYIDFDKYQKTLAKLGLRLEHHHHHH", "soluble on expression in E. coli": "soluble"}
{"sequence": "AETIVMASTTSTEQSGLFGHLLPAFKKASGIDIKVVAQGTGQALDMARRGDADVLFVHDQVAEEKFVADGYAVKRYPVMYNDFILVGPAKDPAGVKGNDIVAALGKLAKDNADFISRGDKSGTHAAELRFWKQTGSDSKGSGYKECGCGMGPALNMGSSMNAYVLSDRGTWLSFKNPGELKILVEGDKRLFNQYGVMVVNPAKFPHVKAKAAQQFVDWVTSKAGQDAIASYQV", "soluble on expression in E. coli": "not soluble"}
{"sequence": "MLCAKNKKDPKPPPASFSETSKVQNVQNTQPKPAAPSQMSIDESHSKNQKLPSAEKSVEECKKPVSPEKKKSPIKVLSEKKLKSKKKEEDKEPDEKVEKDVKKEVKADNNEPLVKNLKIAKKEQEEENPKTDLESHKDEAEAKKKESRRQKKMRNKNSKEGSVEKMEKSEKAY", "soluble on expression in E. coli": "not soluble"}
{"sequence": "GMTRQRIAIDMDEVLADTLGAVVKAVNERADLNIKMESLNGKKLKHMIPEHEGLVMDILKEPGFFRNLDVMPHAQEVVKQLNEHYDIYIATAAMDVPTSFHDKYEWLLEYFPFLDPQHFVFCGRKNIILADYLIDDNPKQLEIFEGKSIMFTASHNVYEHRFERVSGWRDVKNYFNSIEK", "soluble on expression in E. coli": "soluble"}
{"sequence": "MEYEWKPDEQGLQQILQLLKESQSPDTTIQRTVQQKLEQLNQYPDFNNYLIFVLTKLKSEDEPTRSLSGLILKNNVKAHFQNFPNGVTDFIKSECLNNIGDSSPLIRATVGILITTIASKGELQNWPDLLPKLCSLLDSEDYNTCEGAFGALQKICEDSAEILDSDVLDRPLNIMIPKFLQFFKHSSPKIRSHAVACVNQFIISRTQALMLHIDSFTENLFALAGDEEPEVRKNVCRALVMLLEVRMDRLLPHMHNIVEYMLQRTQDQDENVALEACEFWLTLAEQPICKDVLVRHLPKLIPVLVNGMKYSDIDIILLKGDVEEDETIPDSEQDIRPRFHRSRTVAQQHDEDGIEEEDDDDDEIDDDDTISDWNLRKCSAAALDVLANVYRDELLPHILPLLKELLFHHEWVVKESGILVLGAIAEGCMQGMIPYLPELIPHLIQCLSDKKALVRSITCWTLSRYAHWVVSQPPDTYLKPLMTELLKRILDSNKRVQEAACSAFATLEEEACTELVPYLAYILDTLVFAFSKYQHKNLLILYDAIGTLADSVGHHLNKPEYIQMLMPPLIQKWNMLKDEDKDLFPLLECLSSVATALQSGFLPYCEPVYQRCVNLVQKTLAQAMLNNAQPDQYEAPDKDFMIVALDLLSGLAEGLGGNIEQLVARSNILTLMYQCMQDKMPEVRQSSFALLGDLTKACFQHVKPCIADFMPILGTNLNPEFISVCNNATWAIGEISIQMGIEMQPYIPMVLHQLVEIINRPNTPKTLLENTAITIGRLGYVCPQEVAPMLQQFIRPWCTSLRNIRDNEEKDSAFRGICTMISVNPSGVIQDFIFFCDAVASWINPKDDLRDMFCKILHGFKNQVGDENWRRFSDQFPLPLKERLAAFYGV", "soluble on expression in E. coli": "soluble"}
{"sequence": "MPELPEVETSRRGIEPHLVGATILHAVVRNGRLRWPVSEEIYRLSDQPVLSVQRRAKYLLLELPEGWIIIHLGMSGSLRILPEELPPEKHDHVDLVMSNGKVLRYTDPRRFGAWLWTKELEGHNVLTHLGPEPLSDDFNGEYLHQKCAKKKTAIKPWLMDNKLVVGVGNIYASESLFAAGIHPDRLASSLSLAECELLARVIKAVLLRSIEQGGTTLKDFLQSDGKPGYFAQELQVYGRKGEPCRVCGTPIVATKHAQRATFYCRQCQK", "soluble on expression in E. coli": "not soluble"}
{"sequence": "MKRVFVTVGTTSFDDLIARVVAHDSVQILKNLGYNQLVLQIGRGTVVPEPFSTESFTLDVYRYKDSLKEDLQQADLVISHAGAGSCLESLEKGKPLVVVVNEKLMNNHQFELAKQLHREGHLFYCTCSMLPELLQSMDLSTLKCYPPGQPEKFSAFLDKVVGLQK", "soluble on expression in E. coli": "soluble"}
{"sequence": "MPATAYERVVYKSPSEYHYMKVCLEFQEHGVGLNVAQFKQLLVSALRDLFGEVGAALPVDVLTYDEKTLSAILRICSSGLVKLWSSLTLFGAYKSKKCAFRVIQVSPFLLALSGNSREQVLD", "soluble on expression in E. coli": "not soluble"}
{"sequence": "MPSAHSVKLRPLEREDLRYVHQLDNNASVMRYWFEEPYEAFVELSDLYDKHIHDQSERRFVVECDGEKAGLVELVEINHVHRRAEFQIIISPEYQGKGLATRAAKLAMDYGFTVLNLYKLYLIVDKENEKAIHIYRKLGFSVEGELMHEFFINGQYRNAIRMCIFQHQYLAEHKTPGQTLLKPTAQ", "soluble on expression in E. coli": "soluble"}
{"sequence": "MSLFHDVRFPVSLSFGARGGPERRTEIVTLANGAEERNTPWAHSRRRFDAGMGLRSLDDLETVIAFFEARAGQMHAFRWKDWSDFKSCRPSASPAPTDQLLGMGDETTATFQLVKHYGTGGDTYARPITRPVAGTVQVAVGGSPVTEGVEWSVDTATGMVTFTHPPDVGGEVTAGFEFDVPVRFDTDRIETSLASFNAGEVPDLPVVEVRPEGHHHHHH", "soluble on expression in E. coli": "soluble"}
{"sequence": "MGSDKIHHHHHHVSTAVSTPPTRLQCPICGSERFGDFRSRVNVRCSGCGSFERSRLLWLVLSQLELEATGRPFFHVAPEIGIAKLLHARLGERYRAFDFSPDIYAKAKIPVGRLDLCSDLSGMATGSVGGFCHVHVLEHVRCNAALVLQQINRVLAPGGYHVFGVPFWSRQYREDLSSELTDADRLSRFGHEDHVRSFGDQDFTVMFGGAFEGMEAIPLSRLIEVEAAARCNIPPRALTLNNSHSLFVYRKPIP", "soluble on expression in E. coli": "not soluble"}
{"sequence": "MAHHHHHHMKGVSIRQLDAIIILDSDGKRIAVKYYNDQFLPKGESKLIHKSPSRDSISYPFEDTYNNLRTVEDQKMFENDITEKARKLGGNSSETEVLILSKFTVLYLLINDVSIYIVGDEGDNEIILHEIMQTVQQCLESVTNNQIGRKQLLEKLDSIYLILDEIADSGIIMETNPNVIINRLYMHESDLQEHTPLNQAISSAKENIIRSLLSGT", "soluble on expression in E. coli": "soluble"}
{"sequence": "MGHHHHHHSHMRPELLEYYIKVILDYNTAHNKVALSECYTVASVAEMPQNYRPHPQRFTYCSQVLGLHCYKKGIHYWEVELQKNNFCGVGICYGSMNRQGPESRLGRNSASWCVEWFNTKISAWHNNVEKTLPSTKATRVGVLLNCDHGFVIFFAVADKVHLMYKFRVDFTEALYPAFWVFSAGATLSICSPK", "soluble on expression in E. coli": "not soluble"}
{"sequence": "SLIDNPHAQDCWPNQGHMDVQGLTVKYTEAGRSVLQDLSFTVEGGQSVGVLGRTGSGKSTLLSALLRLASTDGEISIDGVSWNSVTLETWRKAFGVVPQKIFILTGTFRMNLDPHARYSDEELWRVAEEVGLKSVIEQFPDKLDFQLEDGGYVLSNGHKQLMCLARSILSKARILLLDEPSAFLDPITLQVLRKTLKQSFSNCTVILSEHRVEPLLECDSFLMIEGSSMKRYDSIQKLLNETSDLKQAMSAAE", "soluble on expression in E. coli": "soluble"}
{"sequence": "MSLLSIIPISAGIPLTETEPKQKWLEEWSKQLFVKVSIDSEYGWGEVLPAAFNSPALYADIVKRLEPSLNGMEISEPGIIWEKLRKLTFSGGYGPVIGAISGVDIALWDLKAKLSKLYLGDIFGKNEQKIARYASLSRYANYEAVIRASKNIVESGFKAIKLHQTKDDTLESVKRFREEIGYGVDLMVDLNCAMNIDEAIKFANSVQRYELKWVEEPIWPPDDLASLKKINDIVPVAAGENFFDFFKFEDAVHLEALTYYQPDVTKVGGLTPTLKILDLLKKNHEQVAFHNRPHNGWIGIFASIAAARMNGVDALIETPPNGVPSQYFRYNAMITSEVIAPNGVGLSIEPIEPLPQPKDEKILIFHDEGHHHHHH", "soluble on expression in E. coli": "not soluble"}
{"sequence": "MADKHLIREKVLRNLNTIDKVEHRERSIKLAEKLFLLPEWNQAKVIGITLARHPEIETETIILQAKKEGKTVLIPKTFYPSRKMEFKKMDSSHPLTKTKFGILEPHELAETVDKDAIDLLIVPGVVFNKAHFRIGFGGGFYDRFLADFKGETVSLCLYEQQIEFTPESHDKPVSILIEG", "soluble on expression in E. coli": "soluble"}
{"sequence": "MDVTDKIRPWMKECRLCPRNCGADRMAGQKGFCGTDTEIMVARAALHMWEEPCISGKEGSGAVFFSGCSLGCNFCQNRRISRGQRGKKITQEHLVELFFQLQEQGANNINLVTAGHFLPQVAVALEMAKEQGLHIPVVYNSSGYEKAKTLKMLDGLVDIYLPDFKYMDAVLAKKYSHAQDYPEIAKEALSEMVRQVGEAEFDSRGMMKKGVIVRQLLLPGHVKDAKNVLKYLYETYGDRIYISMMNQYTPMPAMKDDPQLSRKVTDREYERLIDYAISLGLKNGFMQEGETAKESFIPEFDGEGV", "soluble on expression in E. coli": "not soluble"}
{"sequence": "MSLKLPGKIAIMGGGSWATAIAKMCLAQEDSINWYMRRDDRIADFKRLGHNPAYLTGVKFDTKRITFSSNINDVVKESDTLIFVTPSPYLKAHLKKLKTKIKDKFIITAIKGIVPDDNVIVSEYFTKEYGVPPENIAVLAGPCHAEEVALERLSYLTIACPDKDKARIFARRLGSSFIKTSVSDDVAGIEYSSVLKNVYAIAAGICSGLKYGDNFQAVLISNAIQEMNRFLNTVHPLNRNVDDSVYLGDLLVTGYSNFSRNRTFGSMIGKGYSVKSAQIEMEMIAEGYYGTKCIKEINKHHHVNMPILDAVYNILYERISPMIEIKLLTDSFREGHHHHHH", "soluble on expression in E. coli": "soluble"}
{"sequence": "RSFTAFLLFLPVGFLYPLAKKKELALQRQEELRRQFKEAVLILSSSLGAGYSVENAFAGSLRELEELYGREGMITKEFSYIAHQLRMNRTVETLLAEFADRSGLEEIKNFSDIFAVSKRSRGELVSVVNHTVHVISDRLQVREEILTMTAEKQFEQKIMNLVPYCIVIYIEFSSPGFFRQMYG", "soluble on expression in E. coli": "not soluble"}
{"sequence": "MKKVSPSYLKHQFLIAMPHMHDENFAQTLTYVVEHNANGAMGLVINRPQSLTLADVLEQLRPELPAPKRCQEIAIHAGGPVQTDRGFVLHPSGQTFQATVDLPGGISLSTSQDVLFSIADGYGPDQNVITLGYAGWDAGQLDAEMADNAWLTCSFDPAILFDVDSDQRLDAAARRLGINLALISTQAGHAAAALEHHHHHH", "soluble on expression in E. coli": "not soluble"}
